{"source": "patent US20040146906A1", "target": "PTH receptor 1 on ROS 17/2.8 rat osteoblast cells (rat) (UniProt P25961)", "sequence (P25961 27-591)": "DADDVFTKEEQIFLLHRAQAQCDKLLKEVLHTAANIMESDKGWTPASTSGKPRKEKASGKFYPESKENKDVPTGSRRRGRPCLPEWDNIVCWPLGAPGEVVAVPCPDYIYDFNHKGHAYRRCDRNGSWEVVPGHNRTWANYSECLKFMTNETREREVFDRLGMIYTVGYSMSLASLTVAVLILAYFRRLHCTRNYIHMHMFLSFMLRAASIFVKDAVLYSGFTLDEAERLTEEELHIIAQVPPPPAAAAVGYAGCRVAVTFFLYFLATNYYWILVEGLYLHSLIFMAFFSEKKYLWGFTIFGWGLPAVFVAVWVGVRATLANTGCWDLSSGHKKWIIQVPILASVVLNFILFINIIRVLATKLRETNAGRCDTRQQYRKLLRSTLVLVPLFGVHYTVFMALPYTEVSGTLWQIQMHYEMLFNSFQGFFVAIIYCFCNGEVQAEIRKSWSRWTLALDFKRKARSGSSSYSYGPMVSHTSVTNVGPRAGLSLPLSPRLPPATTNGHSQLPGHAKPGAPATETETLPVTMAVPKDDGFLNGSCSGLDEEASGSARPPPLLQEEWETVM", "experiment": "cell-based or functional assay", "data": [{"substance": "human PTH (1-34) (from UniProt P01270 32-65) (peptide)", "values": [{"measurement": "PAIGB expression (fold induction)", "value": 6, "unit": "fold"}]}]}
